Laboratory results from the supplement of paper PMC9170038.

Tested on: K4 kissing-loop RNA reporter
Test: apparent KD of K4 kissing-loop reporter; higher = weaker reporter binding
Conditions: Eterna round: R107
Method: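 RNA-MaP round R107: designed RNA switches with theophylline, tryptophan, arginine or FMN aptamers are transcribed on-chip within common flanks. They are titrated with a labelled K4 kissing-loop RNA reporter in RNA-MaP buffer (100 mM Tris pH 7.5, 80 mM KCl, 4 mM MgCl2), without ligand or with the indicated ligand. Median apparent KD per design.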

[1] = input ligand: theophylline 20 uM
[2] = input ligand: tryptophan 2.4 mM
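Also: bound reporter read as fluorescence of individual clusters on recovered sequencing chips by microscopy, with normalized cluster intensities fitted with a binding model.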

| Sequence | apparent KD of K4 kissing-loop reporter (input ligand: FMN 200 uM) [nM] | apparent KD of K4 kissing-loop reporter (input ligand: arginine 13.2 mM) [nM] | apparent KD of K4 kissing-loop reporter (input ligand: none) [nM] | apparent KD of K4 kissing-loop reporter [1] [nM] | apparent KD of K4 kissing-loop reporter [2] [nM] |
| --- | --- | --- | --- | --- | --- |
| UGUGUUGUAUGACGGUUUGUCACUUAGUAUUAGGAUAUAUAAACAAAUAGAAGGGAUGGCGGAGUGAUGUUCCGCCGGCCGCCAU [FMN A Exl V10] | 92.3 | 92.9 | 80.8 | 94 | 97.6 |
| UGUGUUGUUGUGAUGUUUGGUGUUGUAGGGCAGGAUAUCGUAGAGGCGAGAAGGGCUUUUGUGCGGUAUGAGUGAUGUUUGUAGG [svvsmullin] | 119 | 89.3 | 160 | 134 | 122 |
| UGUGUUGUUUUGAUGUUUGGUGUUGCAUGGCAGGAUAUCGUAGAGGCGAGAAGGGCUUUUGAGCGGUAUGAGUGAUGUUUGUAGG [p,,mmullin] | 526 | 309 | 441 | 354 | 379 |
| UGUGUUGUUUUGAUGUUUGGUGUUGCAUGGCAGGAUAUCGUAGAGGCGAGAAGGGCUUUUGUGCGGUAUGAGUGAUGUUUGUAGG [iihymullin] | 509 | 372 | 509 | 466 | 398 |
| UGUGUUGUUUUGAUGUUUGUUGUAAGUUGGCAGGAUAUCGUAGAGGCGAGAAGGGCUUUUAUGCGUUAUGAGUGAUGUUUGUAGG [ggbgzmullin] | 353 | 241 | 357 | 351 | 319 |
| UGUGUUUACCUGACUCAGUGAUGUUGAGAAGGAGCGUGCAAAUGCACAGGUAGGUCGCUCAACCUAAAUUCAGGUGAGCACUAAA | 321 | 261 | 323 | 234 | 169 |
| UGUGUUUACCUGACUCAGUGAUGUUGAGAAGGAGCGUGCGAAAGCACAGGUAGGUCGCUCAACCUAAAUUCAGGUGAGCACUAAA [#SwitchBubble 10 #K4Early] | 268 | 234 | 341 | 334 | 277 |
| UGUGUUUACCUGACUCAGUGAUGUUGAGAAGGAGCGUGCGAAUGCACAGGUAGGUCGCUCAACCUAAAUUCAGGUGAGCACUAAA | 303 | 76.4 | 408 | 656 | 724 |
| UGUUAUGUAUCAGGAUAUUAGUGAUGUUUGUUUAUGUUAGUGAUGUUGAUAUUUGUUUUAUGUAUUUAAGAAGGGAUUGUGAUGU [xexxmullin] | 74.1 | 23.1 | 55.4 | 35.9 | 57.8 |
| UUAAGGGUCCGAGGAUAUCUCCCAGUGAUGUUGGGCGAUACGGCCCUUAAGACGAAUGGUUGAAGGAGAGAAGGCGGCUCCCGAU [Onatbi] | 119 | 132 | 108 | 126 | 110 |
| UUACCAAGUGAUGUUUGGAAAUAUCCUAGGCAGGAUAUGCGGAAACGCAGAAGGGCCACCUGAUAGUGAAGGAAACUUCGCUAUC [Ex FMN A 1] | 168 | 141 | 152 | 130 | 151 |
| UUACUACCCAGUGAUGUUGGGUAGCGGCGGCGAGGACCGGUACGGCCGCCACUCGGCGCACGGGAGUGAUGUUCCUGGGAAUAUA [Same State Tryptophan A GF 10] | 281 | 187 | 375 | 709 | 254 |
| UUAGAGAUCUCAGGAUAUCAGUGAUGUUGUGAUCCAGAUCUGAGAUAGAAUUCUAUCUCAGAUCAAUGAGAAGGGAGAUCUCAUU [AK4.3 Exc FMN B] | 721 | 1200 | 1490 | 878 | 1090 |
| UUAGAUCAAAGAUCAGUCUUAUCAAGAGCACGAGGACCGGUACGGCCGCCACUCGAGUGAUGUUCGAGAGCUCUUGUGACAAAUU [AK2 EXC Tryptophan A] | 148 | 129 | 157 | 154 | 219 |
| UUAGAUGAUUCAUCAAGAUUGAUGAGCAAACGAGGACCGGUACGGCCGCCACUCGAGUGAUGUUCGAGAAGCUCAUCAAUCAAUU [AK4.2 EXC Tryptophan A] | 166 | 120 | 139 | 127 | 370 |
| UUAGCAGUAUACUGCAAGACCUAUACUGAUACCAGAGUCAAUUGACUCCCUUGGCAGCGGAUCGAGUGAUGUUCGUAAGGUCAUU [AK4.2 SS Theophylline A] | 743 | 647 | 955 | 792 | 685 |
| UUAGGAGUGGAAGGAUAUCCUGGUGUGGGUGAUGUUAGUGAUGUUGAAGGUGCAGUGAUGUUGCGCGGAGAAGGUCCGGUGUUGA [BDazzled - #6 - Exc. FMN B] | 344 | 341 | 367 | 546 | 319 |
| UUAGGGAUCUCGGCCGCCACUCGUGGGAAAUGGGCCUCAGGGAUAUAGUGAUGUUAUGUAAAGAAGAGGACCGGGAGAAGGAAGG [ExTryptoB.Di] | 451 | 364 | 476 | – | 155 |
| UUAGUCUAGAGAAGGAGCGAGUGAUGUUCGCAUGAUCUCAUGAUAUCAUGAGAUCGAAAUCCUCAGGUAGGUCGCUCUAGACAUU [AK6 Exc Arginine B] | 493 | 372 | 534 | 424 | 545 |
| UUAGUCUAGAGAGGAUAUCAGUGAUGUUGAUAUCAAGAUCAUAGAUAGAAUUCUAUCUAUGAUCAAUGAGAAGGCUCUAGACAUU [AK1 Exc FMN B] | 746 | 141 | 161 | 155 | 163 |
| UUAUAUAAUUAGUCUUUUUUAACAUUAAGUCAGGAUAUCGUAUAUUCGAGAAGGGACACAUGCUAGUGAUGUUAGCUAUUUCUUU [JR_ExcFMNA_Sub017] | 32.4 | 54.7 | 30.7 | 50.1 | 31.5 |
| UUAUAUUUUAUAUUUAGUAGAGCUCUCACUCGAGGACCGGUACGGCCGCCACUCGAGUGAUGUUCGAGUGGGAGAGCUCUACAUU [AK3.2 EXC Tryptophan A] | 118 | 104 | 99.8 | 116 | 315 |
| UUAUCUAUAUUCGAUACCAGUACCCUUUGUGUUGAUCCUUUUAUCAGUGAUGUUGAUGUGUACCCUUGGCAGCGGGUAUGGGUUU [KL-XTheo-B16] | 384 | 370 | 425 | 556 | 279 |

| Sequence | apparent KD of K4 kissing-loop reporter (input ligand: FMN 200 uM) [nM] | apparent KD of K4 kissing-loop reporter (input ligand: arginine 13.2 mM) [nM] | apparent KD of K4 kissing-loop reporter (input ligand: none) [nM] | apparent KD of K4 kissing-loop reporter [1] [nM] | apparent KD of K4 kissing-loop reporter [2] [nM] |
| --- | --- | --- | --- | --- | --- |
| UUCAGGUGUUCGGCCGCCACUCCAGUGAUGUUGGAGUGGCUUCACAAGGACCAGGACAAUGUAAGGAGGACCGGGAAUAUCUCAG [Vequleat] | 130 | 105 | 136 | 128 | 118 |
| UUCAGGUGUUCGGCCGCCACUCCAGUGAUGUUGGAGUGGCUUCACAAGGGCCAGGACAAUGUAAGGAGGACCGGGAAUAUCUCAG [Onisle] | 97.9 | 96.1 | 132 | 77.3 | 111 |
| UUCCAGUGAUGUUGGUAUCUGAUAAGGGAAGGAGCGCGGAUUAACGCAGGUAGGUCGCCCAAGUAAUAAAUGUUUAUUAAUUGAU [Default title] | 183 | 193 | 201 | 161 | 188 |
| UUCUACGAGUGAUGUUCGUAGUGUAAUAGUUAGGAUAUCGUUUUUUCGAGAAGGAACUUCGAAGUGAUACGAAAGUAUCGCUUCG [FMN A 11] | 122 | 117 | 126 | 132 | 136 |
| UUGACCUACUCAGGAUAUCCGCAGUGAUGUUGCGGUUGGCCUGAGCGACAUGAAAAUCUUACUACAGGAGAAGGGAGAGGGUUAC [Anraerce] | 106 | 79.8 | 134 | 88.5 | 96.9 |
| UUGAGGGAGAAUUAUAGUGAUGUUAUAAAGAAGGAUAUCCAAAGAAGGAGAAGGUCUAAGAGGGAAGGGAGGGAGGGAGGGAGGG [ExFMNA.C] | 380 | 131 | 281 | 97.1 | 202 |
| UUGGAAAGACCAGAACAGGGCCUUAUCUGGGAGGAUAUGCUGGAGGGCAGAAGGCCCAGUGAUGUUGGGCCUUGUGCUCGUUCUA [Ainanti] | 165 | 125 | 139 | 137 | 145 |
| UUGGGCGAGGUAACGUGGAUAUCUCGUCGCAAGGAUAUCUGGAAACAGAGAAGGUGCUACAUUACCGGCAGUGAUGUUGCUGACC | 418 | 101 | 555 | 347 | 121 |
| UUGUUUGGUUGAGAGGUUGGGCGAGAUGAUACCAGUAGAGAAGAAUACCCUUGGCAGCAUAAGAAAGAUAUAGUGAUGUUGUAUA [SSTheophA.O] | 538 | 356 | 490 | 529 | 475 |
| UUGUUUGGUUGAGAGGUUGGGCGAGAUGAUACCAGUAUAGUAGAGUACCCUUGGCAGCAUAGGAGAGAUAUAGUGAUGUUGUAUG [SSTheophA.U] | 390 | 302 | 477 | 482 | 381 |
| UUGUUUGGUUGAGAGGUUGGGCGAGAUGAUACCAGUAUAGUAUUGUACCCUUGGCAGCAUAUGAGAGAUAUAGUGAUGUUGUAUG [SSTheophA.X] | 521 | 358 | 529 | 532 | 411 |
| UUGUUUUACUGAAGGAGCGGCAAUUGAUACGUAGAUAUAGUGAUGUUAUAUAAGAUAGAGAGCCAGGUAGGUCGCAGAGGUGUUU [ExArgB.S] | 176 | 150 | 210 | 180 | 168 |
| UUUAAACAUAGUGAUGUUAUGUAACAGUGACGAGGACCGGUACGGCCGCCACUCGAGAGAGAUAGUGGUCAUGCAAAUGUAUGCC [#16 K4 Tryptophan A Same State] | 145 | 167 | 123 | 136 | 137 |
| UUUAAAUAUAGUGAUGUUAUAUAACAAUGACGAGGACCGGUACGGCCGCCACUCGAGAGAGAUAAUGGUAAAAUAAAUAAUUUUC [AstrosSSTryA#3] | 395 | 585 | 709 | 783 | 389 |
| UUUAACGAGUGAUGUUCGAAGAGUAAGGGUGAGGAUAUCGAUUUUUCGAGAAGGCGCCUCGAAGUGAUACGAAAGUAUCGCUUCG [FMN A 7] | 246 | 224 | 269 | 269 | 215 |
| UUUAUAAAGUCGGCCGCCACUGGAUUUAUAUUUGUUUCGUCUGGAUCAAAGUGAUGUUUUGAGUCCAGGACCGGGACAUUUGUUA [whbob_Ex_Tryp_B_w37] | 80.7 | 71.1 | 74.6 | 69.1 | 93.2 |
| UUUAUAAAGUCGGCCGCCACUGGUUUUAUUUUUGUUUAAUCUGGAUCAUAGUGAUGUUAUGAGACCAGGACCGGGACAUUUGUUA [#08 K4 Tryptophan B Exclusion] | 89.5 | 86 | 88.2 | 93.8 | 132 |
| UUUAUAGUGACGGCCGCCACUAUAUUAAUGUUUAGGUUAGAGUGAUGUUUUGAUUAAUAUUUUUAUAGGACCGGGUUAUAUGUUU [ggbvmullin] | 669 | 488 | 632 | 515 | 591 |
| UUUAUAUAGUCGGCCGCCACUGAUUUUUAUAUAUGUUUAUGUUUAUACGAGUGAUGUUCGAUAUACAGGACCGGGACUUUUGUUA [JR_SSTryptoB_Sub017] | 268 | 291 | 294 | 306 | 207 |
| UUUAUAUUGUCGGCCGCCACUGGAUUAAUAUUUGUAUAAUCUAGUUCAAAGUGAUGUUUUGAGUCCAGGACCGGGACAUUUGUUA [JR_ExcTryptoB_Sub004] | 670 | 515 | 536 | 558 | 445 |
| UUUAUUAAGACGGCCGCCACUGAAUCAUAGUGAUGUUAUGAUAAAAUUUUAGAUAAUAAUAACAGCAGGACCGGGUCAAUUAUUA [JR_SSTryptoB_Sub015] | 200 | 173 | 208 | 191 | 182 |
| UUUAUUAAGACGGCCGCCACUGAUUCAGAGUGAUGUUCUGAUAAAAUUUUAGAUAAUAAUAACAGCAGGACCGGGUCAAUUAUUA [JR_SSTryptoB_Sub014] | 211 | 211 | 238 | 219 | 208 |
